What was measured:
[1] = target: recombinant human CD64 (human) (UniProt P12314); test: SPR (Biacore T100), antibody immobilized on sensor chip, soluble CD64 as analyte, 1:1 kinetic binding model
human FcRn (human) = human FcRn (human) (UniProt P55899); test: SPR (Biacore T100), antibody immobilized on sensor chip, soluble FcR as analyte, steady state affinity model
[2] = target: recombinant human CD16a(F) (human) (UniProt P08637); test: as above
[3] = target: recombinant human CD16a(V) (human) (UniProt P08637); test: as above
Sequence of recombinant human CD16a(V) (human) (P08637 17-208 F176V limits assumed): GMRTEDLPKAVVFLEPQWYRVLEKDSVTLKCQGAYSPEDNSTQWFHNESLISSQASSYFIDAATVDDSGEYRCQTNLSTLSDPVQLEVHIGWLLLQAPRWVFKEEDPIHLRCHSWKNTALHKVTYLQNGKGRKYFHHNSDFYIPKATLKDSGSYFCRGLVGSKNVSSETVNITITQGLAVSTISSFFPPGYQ

[4] = target: recombinant human CD16b (human) (UniProt O75015); test: as above
Sequence of recombinant human CD16b (human) (O75015 17-200 limits assumed): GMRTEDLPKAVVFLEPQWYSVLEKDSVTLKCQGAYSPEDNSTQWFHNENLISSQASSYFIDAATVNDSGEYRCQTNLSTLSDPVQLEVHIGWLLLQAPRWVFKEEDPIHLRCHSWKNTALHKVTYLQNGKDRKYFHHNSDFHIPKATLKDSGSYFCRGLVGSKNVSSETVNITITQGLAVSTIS

[5] = target: recombinant human CD32a (human) (UniProt P12318); test: as above
Sequence of recombinant human CD32a (human) (P12318 34-217): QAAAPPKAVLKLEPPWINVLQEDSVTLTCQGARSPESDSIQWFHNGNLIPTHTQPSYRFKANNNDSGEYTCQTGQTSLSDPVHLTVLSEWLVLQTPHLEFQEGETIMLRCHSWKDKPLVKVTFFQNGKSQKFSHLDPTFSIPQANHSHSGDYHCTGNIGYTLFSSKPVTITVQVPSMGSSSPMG

Sequence of recombinant human CD16a(F) (human) (P08637 17-208 limits assumed): as the sequence (P08637 17-208 F176V limits assumed) above, with V160F counted along it
Sequence of recombinant human CD64 (human) (P12314 16-292 limits assumed): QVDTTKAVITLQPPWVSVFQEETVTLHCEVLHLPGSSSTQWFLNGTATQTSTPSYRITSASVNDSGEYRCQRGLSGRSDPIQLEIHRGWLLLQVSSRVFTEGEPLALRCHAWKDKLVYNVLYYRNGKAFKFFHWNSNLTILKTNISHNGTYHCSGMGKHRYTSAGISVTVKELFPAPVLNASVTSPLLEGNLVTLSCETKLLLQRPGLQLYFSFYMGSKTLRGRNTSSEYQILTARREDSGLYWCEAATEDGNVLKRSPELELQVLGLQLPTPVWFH

Kd [1] [nM]	Kd (human FcRn (human)) [nM]	Kd [2] [nM]	Kd [3] [nM]	Kd [4] [nM]	Kd [5] [nM]	Substance
278	712	–	–	–	–	human IgG1 antibody having a N297S substitution (from UniProt P01857 1-330)
–	–	962	734	15000	2080	antibody having wild type human IgG1 domain (from UniProt P01857 1-330)

Reference: patent publication US20200023071A1
